Test results: the supplement of paper PMC9233669
Fewer inactive variants are shown than the library holds.

Key:
biotinyl-Leu-oxazolone = assay: self-aminoacylation, catalytic enhancement (BLO) (fold over background); higher = more active; k-Seq, kA / k0A0; sequences stand for … in GGGAAUGGAUCCACAUCUACGAAUUC…UUCACUGCAGACUUGACGAAGCUG
Method in brief: (§1)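 Catalytic enhancement equals the median kA over the uncatalyzed rate, the latter read from the low-activity peak of a bimodal Gaussian fit. Values of kA came from fitting each sequence's fraction reacted to a pseudo-first-order model, with 1000 bootstraps. Reacted RNA was captured with streptavidin and quantified by triplicate qPCR and Illumina sequencing after 90 minutes at room temperature with 2–1250 μM biotinyl-aminoacyl-oxazolone and 0.43 μM mutagenized RNA pools bearing a 21-nt variable region.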

biotinyl-Trp-oxazolone = assay: self-aminoacylation, catalytic enhancement (BWO) (fold over background); higher = more active; k-Seq, kA / k0A0; sequences stand for … in GGGAAUGGAUCCACAUCUACGAAUUC…UUCACUGCAGACUUGACGAAGCUG
Method in brief: as §1

biotinyl-Phe-oxazolone = assay: self-aminoacylation, catalytic enhancement (BFO) (fold over background); higher = more active; k-Seq, kA / k0A0; sequences stand for … in GGGAAUGGAUCCACAUCUACGAAUUC…UUCACUGCAGACUUGACGAAGCUG
Method in brief: as §1

Row | Sequence | self-aminoacylation (biotinyl-Leu-oxazolone) | self-aminoacylation (biotinyl-Trp-oxazolone) | self-aminoacylation (biotinyl-Phe-oxazolone)
1 | AAGUGUGCUAAUAGUCGCGAG [Fam3.1 aminoacylation ribozyme variant] | 2.47 | 2.41 | 
2 | AAGUUUACUAAAAGUCGCAAG [Fam3.1 aminoacylation ribozyme variant] | 2.08 |  | 2.76
3 | AAGUUUGUUAAUAGUCGCAGG [Fam3.1 aminoacylation ribozyme variant] | 2.45 | 2.06 | 5.46
4 | AUCCACCUAGGUCAUAGGGUG [Fam2.2 aminoacylation ribozyme variant] | 2.16 | 2.2 | 2.19
5 | AUUACCCUGGUCAUCCAGUGC [Fam2.1 aminoacylation ribozyme variant] | 2.19 |  | 5.75
6 | AUUAUCCUGGUCAUCGAGGGA [Fam2.1 aminoacylation ribozyme variant] | 2.02 |  | 
7 | AUUCACCUAGGUCAUCUCGUG [Fam2.2 aminoacylation ribozyme variant] | 2.29 |  | 5.77
8 | AUUUCCCUGGUCAUCAAGUGA [Fam2.1 aminoacylation ribozyme variant] | 2.2 | 2.88 | 2.51
9 | CAGCUUCAAACAAUCGGUCUG [Fam1A.1 aminoacylation ribozyme variant] | 2.01 | 27.1 | 52
10 | CCAAACUUCAAGCAAUCAGUC [Fam1B.1 aminoacylation ribozyme variant] |  | 3.03 | 9.55
11 | CCACACGUCAAGCAAUCGGCC [Fam1B.1 aminoacylation ribozyme variant] |  | 2 | 3.91
12 | CCACACUUCAAACGAUCGGUC [Fam1B.1 aminoacylation ribozyme variant] |  | 4.08 | 3.66
13 | CCACACUUCAAGAAAUCGGUC [Fam1B.1 aminoacylation ribozyme variant] |  | 6.66 | 10.8
14 | CCACACUUCAAGCAAUCAGUC [Fam1B.1 aminoacylation ribozyme variant] |  | 6.45 | 21.5
15 | CCACACUUCAAGUAAUCGGCC [Fam1B.1 aminoacylation ribozyme variant] |  | 4.17 | 3.03
16 | CCACACUUCAAUAAAUCGGUC [Fam1B.1 aminoacylation ribozyme variant] |  | 6.22 | 11.7
17 | CCACACUUCGAGCAAUCGGGC [Fam1B.1 aminoacylation ribozyme variant] | 2.07 |  | 9.16
18 | CCACAGUUCAAGCAAUCGCUC [Fam1B.1 aminoacylation ribozyme variant] | 2.43 |  | 2.03
19 | CCACAUUUCAACCAAUCGGUC [Fam1B.1 aminoacylation ribozyme variant] |  | 5.58 | 7.78
20 | CCACUCUUCAAUCAAUCGGUC [Fam1B.1 aminoacylation ribozyme variant] |  | 20.3 | 33.5

Row | Sequence | self-aminoacylation (biotinyl-Leu-oxazolone) | self-aminoacylation (biotinyl-Trp-oxazolone) | self-aminoacylation (biotinyl-Phe-oxazolone)
21 | CCACUUCAAACAAUCGCUCUG [Fam1A.1 aminoacylation ribozyme variant] |  | 2.69 | 3.32
22 | CCACUUCAAUCAAUCGGUCUG [Fam1A.1 aminoacylation ribozyme variant] | 2.1 | 29.4 | 41.8
23 | CCCCACUUCAUGCAAUCGGUC [Fam1B.1 aminoacylation ribozyme variant] |  | 2.78 | 2.57
24 | CCCGACUUCAAGCAAUCGGUC [Fam1B.1 aminoacylation ribozyme variant] | 2.85 | 47.6 | 91.8
25 | CGACACUUCAAGCAAUCGGUC [Fam1B.1 aminoacylation ribozyme variant] |  | 7.38 | 13.4
26 | CGACUUCAAAAAAUCGGUCUG [Fam1A.1 aminoacylation ribozyme variant] |  | 14 | 15.3
27 | CGACUUCAAACAAUCGGUUUG [Fam1A.1 aminoacylation ribozyme variant] | 2.33 | 32.7 | 63.5
28 | CUACCCUUCAAGCAAUCGGUC [Fam1B.1 aminoacylation ribozyme variant] |  | 5.52 | 8.35
29 | CUACCUCAAACAAUCGGUCUG [Fam1A.1 aminoacylation ribozyme variant] |  | 2.19 | 3.14
30 | CUACGUGAAACAAUCGGUCUG [Fam1A.1 aminoacylation ribozyme variant] |  | 2.03 | 5.84
31 | CUACUUCAAAAAAUCGGUCGG [Fam1A.1 aminoacylation ribozyme variant] |  | 5.6 | 4.54
32 | CUACUUCAAAAAAUCGGUCUC [Fam1A.1 aminoacylation ribozyme variant] |  | 5.93 | 8.87
33 | CUACUUCAAACAAUCAGACUG [Fam1A.1 aminoacylation ribozyme variant] |  | 2.98 | 8.24
34 | CUACUUCAAACAAUCGCUGUG [Fam1A.1 aminoacylation ribozyme variant] | 2.54 |  | 
35 | CUACUUCAAACAAUCGGAAUG [Fam1A.1 aminoacylation ribozyme variant] |  | 4.46 | 7.74
36 | CUACUUCAAAGAAUCGGUCUC [Fam1A.1 aminoacylation ribozyme variant] |  | 3.26 | 4.32
37 | CUACUUCAAAUAAUCGGUCUU [Fam1A.1 aminoacylation ribozyme variant] |  | 5.86 | 9.54
38 | CUACUUCAACCAAUCGGUGUG [Fam1A.1 aminoacylation ribozyme variant] |  | 4.66 | 4.96
39 | CUACUUCAAGAAAUCGGUCUG [Fam1A.1 aminoacylation ribozyme variant] |  | 3.05 | 4.36
40 | CUACUUCAAGCAAUCGGUCUG [Fam1A.1 aminoacylation ribozyme variant] |  | 7.74 | 13.6

Row | Sequence | self-aminoacylation (biotinyl-Leu-oxazolone) | self-aminoacylation (biotinyl-Trp-oxazolone) | self-aminoacylation (biotinyl-Phe-oxazolone)
41 | CUACUUCAAGUAAUCGGUCUG [Fam1A.1 aminoacylation ribozyme variant] |  | 6.74 | 9.14
42 | CUACUUCAGACAAUCGGCCUG [Fam1A.1 aminoacylation ribozyme variant] |  | 2.23 | 3.82
43 | CUCCUUCAAACAAUCGGACUG [Fam1A.1 aminoacylation ribozyme variant] |  | 8.83 | 12.9
44 | CUCCUUCAAACAAUCGGUCAG [Fam1A.1 aminoacylation ribozyme variant] |  | 7.87 | 14
45 | CUCCUUCAAACAAUCGGUCCG [Fam1A.1 aminoacylation ribozyme variant] |  | 6.67 | 6.9
46 | CUGCCUCAAACAAUCGGUCUG [Fam1A.1 aminoacylation ribozyme variant] |  | 20.9 | 34.5
47 | CUGCUUCAAACAAUCGAUCUG [Fam1A.1 aminoacylation ribozyme variant] |  | 2.77 | 7.44
48 | CUUCACCUAGGUCAUCGGGUC [Fam2.2 aminoacylation ribozyme variant] |  | 2.29 | 3.47
49 | CUUCUUCAAACAAUCGGUGUG [Fam1A.1 aminoacylation ribozyme variant] |  | 2.46 | 4.48
50 | CUUCUUCAAAUAAUCGGUCUG [Fam1A.1 aminoacylation ribozyme variant] |  | 7.57 | 10.7
51 | CUUCUUCAACCAAUCGGUCUG [Fam1A.1 aminoacylation ribozyme variant] |  | 6.07 | 9.05
52 | GAGUUUGCUAAUAGUCGAAAG [Fam3.1 aminoacylation ribozyme variant] |  | 5.05 | 13.3
53 | GUACUUCAAACAAUCGGACUG [Fam1A.1 aminoacylation ribozyme variant] |  | 5.26 | 5.92
54 | GUACUUCAAAUAAUCGGUCUG [Fam1A.1 aminoacylation ribozyme variant] |  | 10.7 | 10.4
55 | UAAUUUGCUAAUAGUCGCAAG [Fam3.1 aminoacylation ribozyme variant] |  | 2.01 | 2.21
56 | UAGUUUGCUAAUAGUCGCAAG [Fam3.1 aminoacylation ribozyme variant] |  | 3.18 | 9.38
57 | UCACCCUUCAAGCAAUCGGUC [Fam1B.1 aminoacylation ribozyme variant] |  | 6.03 | 10.5
58 | UCACUCUUCAAGCAAUCGGUC [Fam1B.1 aminoacylation ribozyme variant] |  | 12.7 | 27
59 | UUAGUUCAAACAAUCGGUCUG [Fam1A.1 aminoacylation ribozyme variant] |  | 2.94 | 4.01
